The target of the test is tubulin purified on a phosphocellulose column (mouse). Nature of the test: cell-based or functional assay.
Sequence of tubulin purified on a phosphocellulose column (mouse) (P68369 whole entry, chain 1 of 2): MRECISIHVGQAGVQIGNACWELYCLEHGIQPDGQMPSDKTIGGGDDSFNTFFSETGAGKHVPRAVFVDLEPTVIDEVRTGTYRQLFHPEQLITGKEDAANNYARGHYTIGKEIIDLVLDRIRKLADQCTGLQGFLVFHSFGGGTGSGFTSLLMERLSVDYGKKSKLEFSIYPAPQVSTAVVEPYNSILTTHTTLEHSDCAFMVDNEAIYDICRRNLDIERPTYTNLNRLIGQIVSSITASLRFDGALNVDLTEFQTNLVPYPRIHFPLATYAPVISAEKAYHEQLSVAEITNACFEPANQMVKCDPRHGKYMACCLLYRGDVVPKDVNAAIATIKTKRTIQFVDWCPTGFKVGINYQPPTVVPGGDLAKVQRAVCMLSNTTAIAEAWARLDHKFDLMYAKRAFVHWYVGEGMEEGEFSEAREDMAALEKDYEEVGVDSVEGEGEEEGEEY
Sequence of tubulin purified on a phosphocellulose column (mouse) (Q9ERD7 whole entry, chain 2 of 2, further chain): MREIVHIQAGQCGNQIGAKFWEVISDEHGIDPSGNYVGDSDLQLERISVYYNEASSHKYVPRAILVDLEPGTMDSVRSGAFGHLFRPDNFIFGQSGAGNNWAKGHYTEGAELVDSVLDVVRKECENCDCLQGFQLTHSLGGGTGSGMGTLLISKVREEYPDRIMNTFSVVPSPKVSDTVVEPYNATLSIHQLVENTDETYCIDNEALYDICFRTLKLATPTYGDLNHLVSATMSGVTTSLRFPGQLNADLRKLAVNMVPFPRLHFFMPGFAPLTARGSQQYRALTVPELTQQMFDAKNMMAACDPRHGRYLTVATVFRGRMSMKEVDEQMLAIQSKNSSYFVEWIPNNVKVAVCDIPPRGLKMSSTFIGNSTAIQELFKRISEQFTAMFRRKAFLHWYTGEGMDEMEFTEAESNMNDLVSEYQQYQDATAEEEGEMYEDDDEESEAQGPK

The substance “Neurofilament Light subunit-Tubulin Binding Site 1 (NFL-TBS1) (peptide)” gave an inhibition of tubulin polymerization (% inhibition at 100 µM) of 30.
Substance “Neurofilament Light subunit-Tubulin Binding Site 2 (NFL-TBS2) (peptide)” yielded a T98G cells in phase G1 after 48 hours with 10 µM peptide (FACS; 39% in untreated cultures) (% of cells in G1) of 61 and an inhibition of tubulin polymerization (% inhibition at 100 µM) of 100.
As for “Neurofilament Medium subunit-Tubulin Binding Site (NFM-TBS) (peptide)”, the inhibition of tubulin polymerization (% inhibition at 100 µM) was determined as 30.
As for “Neurofilament high subunit-Tubulin Binding Site (NFH-TBS) (peptide)”, the inhibition of tubulin polymerization (% inhibition at 100 µM) was 30.

The values above are taken from US20090221476A1.
